Assay results from article PMC3946203, “Specificity of ε and Non-ε Isoforms of Arabidopsis 14-3-3 Proteins Towards the H^+-ATPase and Other Targets” (PLoS ONE, 2014).
Where no end group is shown, it is not given here. [ ]: non-standard residue; d: D form. The star is where a group is joined. Biotin = O=C1N[C@H]2[C@H](CS[C@H]2CCCCC(=O)*)N1; pT = C[C@@H](OP(=O)(O)O)[C@H](N)C(=O)O

T1: GF14ωG213N (Arabidopsis, UniProt Q01525 1-259, G213N, 32P-phosphate on the phosphorylation site at the junction between GST and the cloned protein (bead binding assay))
T1 construct: GF14 omega, Arabidopsis, At1g78300, Gly213 changed into Asn; also called GF14ω loop 8 mutant; source: E. coli BL21(DE3), GST fusion (pGEX-2TK)
T1 sequence (looked up): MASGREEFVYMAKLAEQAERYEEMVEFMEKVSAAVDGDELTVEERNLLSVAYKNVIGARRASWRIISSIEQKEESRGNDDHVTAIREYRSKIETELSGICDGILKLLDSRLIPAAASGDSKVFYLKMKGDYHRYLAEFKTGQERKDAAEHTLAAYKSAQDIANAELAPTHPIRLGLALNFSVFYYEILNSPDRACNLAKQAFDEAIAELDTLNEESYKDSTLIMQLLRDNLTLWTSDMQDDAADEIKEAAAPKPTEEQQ

T2: GF14λ (Arabidopsis, UniProt P48349 1-248, 32P-phosphate on the phosphorylation site at the junction between GST and the cloned protein (overlay and bead binding assays))
T2 construct: 14-3-3 protein GF14 lambda, Arabidopsis, At5g10450; cDNA by RT-PCR with primers corresponding to the coding region; also called GF14 lambda; GST-GF14λ
T2 sequence (looked up): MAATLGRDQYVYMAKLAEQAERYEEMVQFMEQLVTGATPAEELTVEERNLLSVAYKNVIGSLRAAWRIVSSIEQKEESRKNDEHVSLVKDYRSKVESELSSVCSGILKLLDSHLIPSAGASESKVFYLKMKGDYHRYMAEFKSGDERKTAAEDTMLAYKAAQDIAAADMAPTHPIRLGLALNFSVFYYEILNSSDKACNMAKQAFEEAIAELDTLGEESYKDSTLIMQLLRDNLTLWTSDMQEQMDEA

T3: GF14χ (Arabidopsis, UniProt P42643 1-267, 32P-phosphate on the phosphorylation site at the junction between GST and the cloned protein (overlay and bead binding assays))
T3 construct: 14-3-3 protein GF14 chi, Arabidopsis, At4g09000; cDNA by RT-PCR with primers corresponding to the coding region; also called GF14 chi; GST-GF14χ
T3 sequence (looked up): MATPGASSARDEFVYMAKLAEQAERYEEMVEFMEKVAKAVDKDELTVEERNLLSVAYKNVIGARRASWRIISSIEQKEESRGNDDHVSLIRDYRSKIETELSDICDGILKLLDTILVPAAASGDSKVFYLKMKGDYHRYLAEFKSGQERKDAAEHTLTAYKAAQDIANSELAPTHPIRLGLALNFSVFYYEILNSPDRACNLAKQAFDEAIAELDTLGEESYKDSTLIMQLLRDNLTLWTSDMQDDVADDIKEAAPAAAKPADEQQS

T4: GF14κ (Arabidopsis, UniProt P48348 1-248, 32P-phosphate on the phosphorylation site at the junction between GST and the cloned protein (overlay and bead binding assays))
T4 construct: 14-3-3 protein GF14 kappa, Arabidopsis, At5g65430; cDNA by RT-PCR with primers corresponding to the coding region; also called GF14 kappa; GST-GF14κ
T4 sequence (looked up): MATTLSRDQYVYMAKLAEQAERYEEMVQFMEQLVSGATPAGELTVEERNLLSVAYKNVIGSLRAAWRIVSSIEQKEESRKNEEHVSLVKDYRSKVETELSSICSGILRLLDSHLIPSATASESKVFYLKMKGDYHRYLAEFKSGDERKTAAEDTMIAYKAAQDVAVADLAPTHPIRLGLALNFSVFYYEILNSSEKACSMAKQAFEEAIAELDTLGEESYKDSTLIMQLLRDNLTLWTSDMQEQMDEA

B1: bL15Vp peptide (peptide)
peptide: Biotin-LKGLDIDTIQQNY[pT]V
notes: last 15 amino acids of the maize plasma membrane H+-ATPase isoform 2 (MHA2); also called phosphorylated biotinyl-peptide reproducing the last 15 residues of the MHA2 H+-ATPase; source: synthetic peptide (Neosystem, Strasbourg)
B2: GF14εN211G (natural protein, Arabidopsis, UniProt P48347 1-254, looked up)
chain: MENEREKQVYLAKLSEQTERYDEMVEAMKKVAQLDVELTVEERNLVSVGYKNVIGARRASWRILSSIEQKEESKGNDENVKRLKNYRKRVEDELAKVCNDILSVIDKHLIPSSNAVESTVFFYKMKGDYYRYLAEFSSGAERKEAADQSLEAYKAAVAAAENGLAPTHPVRLGLALNFSVFYYEILNSPESACQLAKQAFDDAIAELDSLGEESYKDSTLIMQLLRDNLTLWTSDLNEEGDERTKGADEPQDEN
modifications: 32P-phosphate on the phosphorylation site at the junction between GST and the cloned protein (bead binding assay)
notes: GF14 epsilon, Arabidopsis, At1g22300, Asn211 changed into Gly; also called GF14ε loop 8 mutant; source: E. coli BL21(DE3), GST fusion (pGEX-2TK)

What was measured:
Settings in all cases: both partners purified
[1] = molecular target: T1, GF14ωG213N; assay: pull-down; bL15Vp on streptavidin-agarose magnetic beads; 0.1 nmol 32P-labeled GF14 wild type or loop 8 mutant in buffer HT with 5 mM Mg2+; FC not told for this experiment
[2] = molecular target: B2; assay: pull-down; bL15Vp on streptavidin-agarose magnetic beads; 0.1 nmol 32P-labeled GF14 wild type or loop 8 mutant in buffer HT without Mg2+; FC not told for this experiment
[3] = molecular target: T2, GF14λ; assay: pull-down; 0.05 nmol bL15Vp on streptavidin-agarose magnetic beads; 0.1 nmol 32P-labeled GF14 in 50 µl buffer HT, 60 min, room temperature; without FC; bound radioactivity counted
[4] = molecular target: T3, GF14χ; assay: as above
[5] = molecular target: T4, GF14κ; assay: as above
[6] = molecular target: B1; assay: pull-down; bL15Vp on streptavidin-agarose magnetic beads; 0.1 nmol 32P-labeled GF14 wild type or loop 8 mutant in buffer HT with 5 mM Mg2+; FC not told for this experiment

Row | binding result [1] | binding result [2] | binding result [3] | binding result [4] | binding result [5] | fold more protein bound with 5 mM Mg2+ (reference not clear: wild type GF14ε or the mutant without Mg2+) [6] | Binder
1 | binds | binds | binds | binds | binds | – | B1
2 | – | – | – | – | – | > 5 fold | B2
